Experimental data from article doi:10.1101/2024.10.15.618391.
Several values for one entry are separate records, joined by “and”; a condition that tells them apart may be missing. Equal values may be shown once. Read-outs that look alike come from different tables or passages of the source.

Experiments:
Test in all cases: BLI
[1] = molecular target: His6-SeSepF (Spiroplasma eriocheiris SepF) (Spiroplasma eriocheiris)
[2] = molecular target: His6-SeSepF (Spiroplasma eriocheiris SepF) (Spiroplasma eriocheiris); remark: listed apart in the source
[3] = molecular target: His6-SeSepF (Spiroplasma eriocheiris SepF) (Spiroplasma eriocheiris); remark: listed apart in the source

| Kd [1] [nM] | Kd [2] [nM] | Substance | Kd [3] |
| --- | --- | --- | --- |
| 53900 | 1040 | Spiroplasma eriocheiris FtsZ, His-tag removed (from UniProt A0A0H3XMR3 1-411) (natural protein) | 1130 nM |
|  |  | SeFtsZ L272E mutant (from UniProt A0A0H3XMR3 1-411) (natural protein) | 980 nM and 700 nM |
